Where two headings read alike, the source gives them in different places.
Columns and labels:
Assay in all cases: SPR
[1] = target: C-terminal topoisomerase domain of Sulfolobus solfataricus reverse gyrase TopR1 (Sulfolobus solfataricus P2) (UniProt Q97ZZ8)
[2] = target: T1, C-terminal topoisomerase domain of Sulfolobus solfataricus reverse gyrase TopR1 (Sulfolobus solfataricus P2, UniProt Q97ZZ8 605-1242)
T1 sequence (looked up): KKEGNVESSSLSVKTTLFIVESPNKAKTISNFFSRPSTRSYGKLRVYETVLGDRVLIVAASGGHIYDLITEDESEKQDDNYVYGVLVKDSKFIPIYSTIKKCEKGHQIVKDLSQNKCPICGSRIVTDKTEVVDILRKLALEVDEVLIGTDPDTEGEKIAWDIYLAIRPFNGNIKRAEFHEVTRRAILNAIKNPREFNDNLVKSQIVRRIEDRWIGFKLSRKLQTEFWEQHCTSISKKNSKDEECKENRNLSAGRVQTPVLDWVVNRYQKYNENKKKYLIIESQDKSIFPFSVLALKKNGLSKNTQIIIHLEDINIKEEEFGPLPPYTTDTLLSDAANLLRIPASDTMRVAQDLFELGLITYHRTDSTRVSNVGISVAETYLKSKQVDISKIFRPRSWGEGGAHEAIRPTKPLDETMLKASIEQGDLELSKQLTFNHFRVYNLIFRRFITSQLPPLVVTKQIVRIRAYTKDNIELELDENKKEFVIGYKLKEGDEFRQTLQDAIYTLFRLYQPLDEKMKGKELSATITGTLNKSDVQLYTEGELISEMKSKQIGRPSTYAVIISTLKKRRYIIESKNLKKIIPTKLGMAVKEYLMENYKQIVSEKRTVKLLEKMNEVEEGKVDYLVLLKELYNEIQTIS

[3] = target: T1, C-terminal topoisomerase domain of …; remark: listed apart in the source
[4] = target: T1, C-terminal topoisomerase domain of …; remark: listed apart in the source

“non-specific DNA-binding protein Smj12 of S. solfataricus (natural protein)” was tested, and the Ka [1] was 284 M⁻¹, the Kd [1] was 3530 µM and the koff [1] was 0.00313 s⁻¹. It also gave a kon [1] of 0.887 M⁻¹ s⁻¹.

B1: N-terminal ATPase (helicase-like) domain of Sulfolobus solfataricus reverse gyrase TopR1 (domain or fragment, Sulfolobus solfataricus P2, UniProt Q97ZZ8 1-607, looked up)
chain: MTSINKVPPSIYTRSCPNCGGNISSQRLFNGSVCESCLKDDREFSNLSDLINILSENSNLKNLTQIRDVLEEYKKVEEIFGKLLNNSKPIGPQRSWTIRFLRGESFAIIAPPGLGKTTFGLIMSLYNATRNRKSIIIFPTRTLISQTVDKLAKFSELYSYSPRILYNKQSPTQTENILDQLKSGNFDIFISTNRFVIQNLSELSNIKFDFIFVDDVDAALKSGKSAKAILRLVGFTDEDIQTTMKLLRENIGEEEKFGKIQEIRESRLKDKIVIFSSATISRGNPILSSLMGFRPGSSVIYLRNIYDSYIDLTQTCKGQDFEECTLGTVIKLLKRLNDGTLIFVPIDKGAQYADYLASNLRDHGINVESVASSSISKLEKFERGEVSSLVGVATHYGVLVRGIDLPWRVKYSIFVGIPKFKFKIGEYMHPLALTRLLSLVYLVKNDDKVRGLLSYIRKRLRKISPAALAMLAKDIREGKIDDERLKEAYNLVNEYLKDNEFLKKVSDVGDLVIEGDYILMPDYLTYIQASGRTSRLYGANLTTGLSVLLIDNSRLFELLNKKLNLILDEVKWYSLDIDADKLGQVSLSDISAKITEERESLSKIKKE
Work on B1 yielded a Ka [2] of 2.87e+06 M⁻¹, a Kd [2] of 0.349 µM and a koff [2] of 0.00152 s⁻¹. The kon [2] was 4350 M⁻¹ s⁻¹, the Ka [3] was 6.32e+06 M⁻¹ and the Kd [3] was 0.158 µM. For the same molecule, the koff [3] was 0.00109 s⁻¹, the kon [3] was 6900 M⁻¹ s⁻¹ and the Ka [4] was 7.59e+06 M⁻¹. The Kd [4] was 0.132 µM, the koff [4] was 0.00187 s⁻¹ and the kon [4] was 14200 M⁻¹ s⁻¹.

— paper PMC2504306 (Nucleic Acids Research, 2008)
